Patent publication US20180327506A1 (AbbVie / Abbott, published 2018)
Where two headings read alike, the source gives them in different places.

T1: full-length mature human EMR2 (residues Q24-N823) with N-terminal aspartic acid/lysine epitope tag, … (human, UniProt Q9UHX3 24-823)
T1 sequence: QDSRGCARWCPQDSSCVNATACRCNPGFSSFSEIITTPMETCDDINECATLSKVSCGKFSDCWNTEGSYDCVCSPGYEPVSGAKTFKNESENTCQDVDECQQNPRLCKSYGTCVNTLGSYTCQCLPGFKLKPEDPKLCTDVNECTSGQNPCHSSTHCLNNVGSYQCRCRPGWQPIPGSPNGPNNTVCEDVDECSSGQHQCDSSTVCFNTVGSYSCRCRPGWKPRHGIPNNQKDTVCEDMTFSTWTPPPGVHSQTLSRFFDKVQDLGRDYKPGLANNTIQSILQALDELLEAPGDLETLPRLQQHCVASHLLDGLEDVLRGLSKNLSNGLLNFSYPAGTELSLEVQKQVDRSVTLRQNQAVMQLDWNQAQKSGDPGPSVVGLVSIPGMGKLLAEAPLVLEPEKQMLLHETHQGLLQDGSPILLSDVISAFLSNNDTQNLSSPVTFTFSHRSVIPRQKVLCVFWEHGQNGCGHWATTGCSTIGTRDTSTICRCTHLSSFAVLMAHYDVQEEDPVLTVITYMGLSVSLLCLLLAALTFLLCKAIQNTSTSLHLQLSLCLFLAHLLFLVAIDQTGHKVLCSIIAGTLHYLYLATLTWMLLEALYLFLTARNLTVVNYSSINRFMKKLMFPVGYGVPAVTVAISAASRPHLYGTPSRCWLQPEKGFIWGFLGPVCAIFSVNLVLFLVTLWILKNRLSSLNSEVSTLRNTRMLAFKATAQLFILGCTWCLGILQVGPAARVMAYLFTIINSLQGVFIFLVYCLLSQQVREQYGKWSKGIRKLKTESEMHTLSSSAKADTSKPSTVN

T2: full-length mature human CD97 (residues Q21-I845) with N-terminal aspartic acid/lysine epitope tag, … (human, UniProt P48960 21-835)
T2 sequence (looked up): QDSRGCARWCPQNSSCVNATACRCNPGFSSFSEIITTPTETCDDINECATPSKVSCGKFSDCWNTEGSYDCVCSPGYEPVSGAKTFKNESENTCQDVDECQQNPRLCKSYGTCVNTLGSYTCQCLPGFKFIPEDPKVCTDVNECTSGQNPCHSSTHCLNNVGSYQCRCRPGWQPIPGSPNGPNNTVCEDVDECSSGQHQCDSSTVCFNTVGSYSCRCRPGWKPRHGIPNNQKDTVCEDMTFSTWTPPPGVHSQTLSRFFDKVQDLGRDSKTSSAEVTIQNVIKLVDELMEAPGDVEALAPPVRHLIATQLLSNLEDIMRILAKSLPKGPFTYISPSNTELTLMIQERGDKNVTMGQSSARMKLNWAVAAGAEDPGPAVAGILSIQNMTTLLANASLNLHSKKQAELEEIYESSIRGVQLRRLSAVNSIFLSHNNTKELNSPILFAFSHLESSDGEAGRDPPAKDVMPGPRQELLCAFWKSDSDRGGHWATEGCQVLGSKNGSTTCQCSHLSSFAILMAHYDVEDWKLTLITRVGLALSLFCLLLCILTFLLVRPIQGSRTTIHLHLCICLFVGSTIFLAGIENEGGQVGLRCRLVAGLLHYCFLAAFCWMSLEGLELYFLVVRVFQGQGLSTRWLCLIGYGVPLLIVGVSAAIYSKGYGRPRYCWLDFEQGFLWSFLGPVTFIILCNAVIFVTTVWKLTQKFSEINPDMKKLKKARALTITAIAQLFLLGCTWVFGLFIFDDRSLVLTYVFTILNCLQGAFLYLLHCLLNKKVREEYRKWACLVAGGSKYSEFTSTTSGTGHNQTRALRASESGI

T3: full-length mature cynomolgus EMR2 (residues Q24-N816) with N-terminal aspartic acid/lysine epitope tag, … (cynomolgus monkey (Macaca fascicularis), UniProt A0A2K5WL23 21-816)
T3 sequence: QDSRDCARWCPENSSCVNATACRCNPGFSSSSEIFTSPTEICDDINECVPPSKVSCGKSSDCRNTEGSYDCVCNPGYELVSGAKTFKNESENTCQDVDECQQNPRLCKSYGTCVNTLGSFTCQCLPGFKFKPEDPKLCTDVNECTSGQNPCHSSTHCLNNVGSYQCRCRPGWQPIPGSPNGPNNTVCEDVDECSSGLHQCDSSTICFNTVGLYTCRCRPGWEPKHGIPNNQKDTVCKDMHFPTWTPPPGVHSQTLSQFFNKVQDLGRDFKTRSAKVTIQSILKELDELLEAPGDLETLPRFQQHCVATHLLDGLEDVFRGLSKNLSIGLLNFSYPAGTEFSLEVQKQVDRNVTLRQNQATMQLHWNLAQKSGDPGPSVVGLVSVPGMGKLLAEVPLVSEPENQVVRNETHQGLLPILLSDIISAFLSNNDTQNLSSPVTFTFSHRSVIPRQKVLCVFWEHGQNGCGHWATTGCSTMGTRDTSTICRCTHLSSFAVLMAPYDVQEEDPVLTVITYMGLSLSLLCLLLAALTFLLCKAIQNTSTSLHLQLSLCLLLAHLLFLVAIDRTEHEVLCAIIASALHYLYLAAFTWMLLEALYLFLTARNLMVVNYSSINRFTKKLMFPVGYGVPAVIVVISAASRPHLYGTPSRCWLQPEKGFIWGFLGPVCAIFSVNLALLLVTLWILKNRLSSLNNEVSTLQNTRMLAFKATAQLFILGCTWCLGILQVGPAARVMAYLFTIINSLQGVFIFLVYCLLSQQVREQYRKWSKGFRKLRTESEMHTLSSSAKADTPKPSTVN


Legend:
[1] = molecular target: T1, full-length mature human EMR2 (residues …); test: cell-based or functional assay
[2] = molecular target: T2, full-length mature human CD97 (residues …); test: cell-based or functional assay
[3] = molecular target: T1, full-length mature human EMR2 (residues …); test: cell-based or functional assay; remark: listed apart in the source
[4] = molecular target: T3, full-length mature cynomolgus EMR2 …; test: cell-based or functional assay
[5] = molecular target: T2, full-length mature human CD97 (residues …); test: cell-based or functional assay; remark: listed apart in the source
[6] = molecular target: T1, full-length mature human EMR2 (residues …); test: flow cytometry on transduced HEK293T; 293 naive MFI 97.8
Procedure: (§1) The exemplary antibodies were also tested using flow cytometry to determine their ability to associate with hEMR2, cEMR2 and CD97 expressed on the surface of cells.

[7] = molecular target: T3, full-length mature cynomolgus EMR2 …; test: as above
Procedure: as §1

[8] = molecular target: T2, full-length mature human CD97 (residues …); test: as above
Procedure: as §1

[9] = molecular target: T1, full-length mature human EMR2 (residues …); test: flow cytometry on transduced HEK293T; 293 naive MFI 99.5
Procedure: as §1

[10] = molecular target: T3, full-length mature cynomolgus EMR2 …; test: as above
Procedure: as §1

[11] = molecular target: T2, full-length mature human CD97 (residues …); test: as above
Procedure: as §1

[12] = molecular target: T1, full-length mature human EMR2 (residues …); test: flow cytometry on transduced HEK293T; 293 naive MFI 97.1
Procedure: as §1

[13] = molecular target: T3, full-length mature cynomolgus EMR2 …; test: as above
Procedure: as §1

[14] = molecular target: T2, full-length mature human CD97 (residues …); test: as above
Procedure: as §1

[15] = molecular target: T1, full-length mature human EMR2 (residues …); test: flow cytometry on transduced HEK293T; 293 naive MFI 326
Procedure: as §1

[16] = molecular target: T3, full-length mature cynomolgus EMR2 …; test: as above
Procedure: as §1

[17] = molecular target: T2, full-length mature human CD97 (residues …); test: as above
Procedure: as §1

Binder | % live, FAB-saporin killing assay [1] [%] | % live, FAB-saporin killing assay [2] [%] | % live, FAB-saporin killing assay [3] [%] | % live, FAB-saporin killing assay [4] [%] | % live, FAB-saporin killing assay [5] [%] | further results
SC93.15 (antibody, IgG1, V domains shown) VH: EVQLQQSGPELVKPGASVKISCKGSGYTFTDYFMNWVKLSHGKSLEWIGEINPNNGGTNYNQKFKGKATLTVDKSSSIAYMELRSLTSEDSAVYYCARPGTNYWGPGTTLTVSS VL: DIVMTQSHKFMSTSVGDRVSITCKASQNVGTSVAWYQQKPGHSPKLLIYWASTRHTGVPDRFTGSGSGTDFSLTISSVQSEDLTDYFCQQYSSYPLTFGGGTKLEIK | 15 | 99.5 | – | – | – | –
SC93.239 (antibody, V domains shown, Murine hybridoma antibody with a kappa light chain; also called clone SC93.239; SC93.239 (Bin A)) VH: LVQLQQSGVELARPGASVKLSCKASGYIFTSYGISWVKQRTGQGLEWIGNIYPRTGNTYYNEKFKDKATLTADKSSNTAYMELRSLTSEDSAVYFCARGTHYDPLDYWGQGTTLTVSS VL: ENVLTQSPAIMSASPGEKVTMTCRASSSVSSSDLHWYQQKSGASPKLWIYSTSNLASGVPARFSGSGSGASCSLTISSVEAEDAATYYCHQYSGYPWTFGGGTKLEIK | – | – | 16.8 | 16.7 | 106 | FC MFI [6]: 71100; FC MFI [7]: 76700; FC MFI [8]: 925
SC93.253 (antibody, V domains shown, Murine hybridoma antibody with a kappa light chain) VH: not shown VL: DIVMTQSQKFMSTSVGDRIIITCKASQNVRTTVDWYQQKPGQSPKVLISLASNRHTGVPDRFTGSGSGTDFTLTISNVQSEDLADYFCLQHRNYPLTFGGGTKLEIK | – | – | 13.4 | 11.1 | 92.2 | FC MFI [9]: 38300; FC MFI [10]: 48700; FC MFI [11]: 328
SC93.243 (antibody, IgG2b, V domains shown, murine, IgG2b) VH: QVQLQQSGAELMKPGASVKISCKATGYTFSSYWIEWVKQRPGHGLEWIGEILPGSGRTNYNERLKGKATFTADTSSNTAYMQLSSLTSEDSAVYYCARPYFYGSNFDFWGQGTTLTVSS VL: DIVMTQSHKFMSTSVGDRVSITCKASQDVGTAVAWYQQKPGQSPKLLIYWASTRHTGVPDRFTGSGSGTDFTLTISNVQSEDLADYFCQQYSSYHTFGGGTKLEIK | – | – | 68.7 | 20.8 | 91.9 | FC MFI [12]: 42700; FC MFI [13]: 65800; FC MFI [14]: 8140
SC93.216 (antibody, IgG1, V domains shown) VH: EVQLVESGGGLVKPGGSLKLSCAASGFTFSSYGMSWVRQTPEKRLEWVAAIHSNGDITYYPDTVKGRFTISRDNAKNTLYLQMSSLTSEDTALYYCANLAYWGQGTLVTVSA VL: EIQMTQSPSSMSASLGDRITITCQATQDIVKNLNWYQQKPGKSPSSLIYYATELAEGVPSRFSGSGSGSDYSLTISNLESEDFADYYCLQFYEFPLTFGAGTKLELK | 102 | 107 | – | – | – | –
SC93.252 (antibody, IgG2a, V domains shown, murine, IgG2a) VH: QVQLQQSDAELVKPGASVKISCKVSGFSFTDHTIHWMRQRPEQGLEWIGYIYPTDGNTRYNEKFKGKASLTADKSSTTAYMQLSSLTSEDSAVYFCAKRGYYWYFDVWGTGTTVTVSS VL: DIQMTQASSYLSVSLGGRVTITCKASDHINNWLAWYQQKPGNAPRLLISHATNLETGFPSRFSGSGSGKDYTLSITSLQTEDVATYYCQQYWNIPYTFGGGTKLEIE | – | – | 10.8 | 9.42 | 9.09 | FC MFI [15]: 40500; FC MFI [16]: 45200; FC MFI [17]: 43800
